According to patent US20130058955A1 (Genentech, published 2013):
Read-outs that look alike come from different tables or passages of the source.

Key:
[1] = molecular target: T1, linear diubiquitin (Boston Biochem) (human, UniProt P0CG48 1-152); experiment: phage IC50 competition ELISA: soluble linear diUb against plate-coated linear diUb for the 1D8.3C2 Fab-phage
T1 construct: Bought product

[2] = molecular target: T2, K48-linked polyubiquitin 2-7 (Boston Biochem) (human, UniProt P0CG48 1-76, isopeptide bonds between the C-terminus of one ubiquitin and Lys48 of the next); experiment: phage spot ELISA, 2 ug/mL coated antigen, anti-M13-HRP
T2 construct: also called K48-linked chains
Protocol: (§1) Ninety-six individual clones from the second round of sorting of the VH library, 192 clones from the third round of sorting of the VH library, 96 clones from the fourth round of sorting of the VH library, and 192 clones from the fourth round of sorting of the common light chain library were screened. […] Individual clones were grown up in a 96-well format in 1 mL of 2YT broth containing 50 μg/mL carbenicillin and 1×10¹⁰ phage/mL M13K07 helper phage at 37° C. overnight with shaking. Cells were pelleted by spinning at 3000 rpm for ten minutes. […] All of the Fab libraries contain a carboxy-terminal gD tag on the light chain which allows for assessment of display level by anti-gD antibody binding. The panel of ubiquitin proteins was immobilized on 384-well Maxisorb immunoplates (NUNC). Plates were coated at 4° C. overnight with 2 μg/mL of each protein in 50 mM sodium carbonate buffer, pH 9.6. The coated plates were blocked with 60 μL/well of 2.5% milk in PBST for one hour at 25° C. with shaking. After one hour, the blocking buffer was dumped off of the plate and 20 μL/well of PBST and 10 μL/well of phage supernatant were added. Plates were incubated at 25° C. for one hour with shaking. The plate was then washed six times with PBST by manually filling the wells and dumping off the wash buffer. A 1:5,000 dilution of an anti-M13 horseradish peroxidase (HRP)-conjugated secondary antibody (GE Healthcare) in PBST was used for detection of phage binding. 30 μL/well of the secondary dilution was added and the plate was incubated at 25° C. for 30 minutes with shaking. The plate was then washed six times with PBST and twice with PBS, both manually. Bound secondary antibody was detected using a TMB substrate (KPL) followed by quenching with an equal volume of 1 M phosphoric acid. The absorbance was read at 450 nm.

[3] = molecular target: T3, K11-linked diubiquitin (Genentech) (human, UniProt P0CG48 1-76, isopeptide bond between the C-terminus of one ubiquitin and Lys11 of the other); experiment: as above
T3 construct: also called K11 diUb
Protocol: as §1

[4] = molecular target: T4, K63-linked polyubiquitin 2-7 (Boston Biochem) (human, UniProt P0CG48 1-76, isopeptide bonds between the C-terminus of one ubiquitin and Lys63 of the next); experiment: as above
T4 construct: also called K63-linked chains
Protocol: as §1

[5] = molecular target: T5, monoubiquitin (Boston Biochem) (human, UniProt P0CG48 1-76); experiment: as above
T5 construct: Bought product
Protocol: as §1

[6] = molecular target: T1, linear diubiquitin (Boston Biochem); experiment: phage IC50 competition ELISA: Fab-phage with titrated soluble linear diubiquitin, unbound phage caught on coated linear diubiquitin; clone 1D8
Protocol: (§2) An initial titer ELISA was done to determine the amount of phage at which a signal of OD₄₅₀=0.5 would be achieved. […] The coated plates were blocked with 200 μL/well of 2.5% milk in PBST for one hour at 25° C. with shaking. Twelve two-fold serial dilutions of the phage were made in 2.5% milk in PBST from OD₂₆₈=4.0 to OD₂₆₈=0.002. After one hour, the blocking buffer was dumped off of the plate and 100 μL/well of each phage dilution was added and incubated at 25° C. for 15 minutes with shaking. The plate was then washed six times with PBST using a plate washer. A 1:5000 dilution of an anti-M13 phage-HRP-conjugated secondary antibody (GE Healthcare) in PBST was used for detection of phage binding. 100 μL/well of the secondary dilution was added and the plate was incubated at 25° C. for 30 minutes with shaking. The plate was then washed 12 times with PBST using a plate washer and twice with PBS manually. Bound secondary antibody was detected using a TMB substrate (KPL) followed by quenching with an equal volume of 1 M phosphoric acid.

[7] = molecular target: T1, linear diubiquitin (Boston Biochem); experiment: western blot, 1 ug/mL IgG, LI-COR Odyssey quantification; Ub2 bands seen at 37 (faint), 111, 333 and 1000 ng
[8] = molecular target: T1, linear diubiquitin (Boston Biochem); experiment: western blot, 1 ug/mL IgG, LI-COR Odyssey quantification; Ub2 bands seen at 111 (faint), 333 and 1000 ng
[9] = molecular target: T6, K48-linked diubiquitin (Boston Biochem) (human, UniProt P0CG48 1-76, isopeptide bond between the C-terminus of one ubiquitin and Lys48 of the other); experiment: phage specificity ELISA, 1 ug/mL coated antigen, anti-M13-HRP
T6 construct: Bought product; also called K48 diUb

[10] = molecular target: T3, K11-linked diubiquitin (Genentech); experiment: as above
[11] = molecular target: T5, monoubiquitin (Boston Biochem); experiment: as above
[12] = molecular target: T1, linear diubiquitin (Boston Biochem); experiment: phage IC50 competition ELISA with soluble linear diubiquitin
Protocol: as §2

[13] = molecular target: T6, K48-linked diubiquitin (Boston Biochem); experiment: phage specificity ELISA, 1 ug/mL coated antigen, anti-M13-HRP; remark: listed apart in the source
[14] = molecular target: T3, K11-linked diubiquitin (Genentech); experiment: as above; remark: listed apart in the source
[15] = molecular target: T5, monoubiquitin (Boston Biochem); experiment: as above; remark: listed apart in the source

B1: 1D8.3C2, Fab displayed on phage (Fab, V domains shown)
VH: EVQLVESGGGLVQPGGSLRLSCAASGFTFTDYDIHWVRQAPGKGLEWVAWISPYSGYTDYADSVKGRFTISADTSKNTAYLQMNSLRAEDTAVYYCAREAGSRLLSVMDYWGQGTLVTVSS
VL: DIQMTQSPSSLSASVGDRVTITCRASQGVDNSVAWYQQKPGKAPKLLIYSASFLYSGVPSRFSGSGSGTDFTLTISSLQPEDFATYYCQQSYTTPPTFGQGTKVEIK
notes: Fab on M13 phage
binding result [1]: binds

B2: 1A10, Fab displayed on phage (Fab, V domains shown)
VH: EVQLVESGGGLVQPGGSLRLSCAASGFNIYYSSIHWVRQAPGKGLEWVASIYPYYGYTSYADSVKGRFTISADTSKNTAYLQMNSLRAEDTAVYYCARGYSWYYGSPAFDYWGQGTLVTVSS
VL: DIQMTQSPSSLSASVGDRVTITCRASQSVSSAVAWYQQKPGKAPKLLIYSASSLYSGVPSRFSGSRSGTDFTLTISSLQPEDFATYYCQQHYTTPPTFGQGTKVEIK
notes: Fab on M13 phage
binding result [2]: no binding
binding result [3]: no binding
binding result [4]: no binding
binding result [5]: no binding

B3: 1D8, Fab displayed on phage (Fab, V domains shown)
VH: EVQLVESGGGLVQPGGSLRLSCAASGFTFTDYDIHWVRQAPGKGLEWVAGISPYGGYTDYADSVKGRFTISADTSKNTAYLQMNSLRAEDTAVYYCAREAGSRLLSVMDYWGQGTLVTVSS
VL: DIQMTQSPSSLSASVGDRVTITCRASQDVSTAVAWYQQKPGKAPKLLIYSASFLYSGVPSRFSGSGSGTDFTLTISSLQPEDFATYYCQQSYTTPPTFGQGTKVEIK
notes: Fab on M13 phage (heavy chain fused to gpIII, gD tag on light chain); Fab-zip (bivalent) in the first spot ELISA, monovalent afterwards; also called parental wild-type 1D8
IC50 [6]: ~5000 nM

B4: 1F11/3F5/Y102L T110A (antibody, V domains shown)
VH: EVQLVESGGGLVQPGGSLRLSCAASGFTFSNTYISWVRQAPGKGLEWVASITPSSGQTDYADSVKGRFTISADTSKNTAYLQMNSLRAEDTAVYYCARTWLLRWVMDLWGQGTLVAVSS
VL: DIQMTQSPSSLSASVGDRVTITCRASQDVSTAVAWYQQKPGKAPKLLIYSAKFLYSGVPSRFSGSGSGTDFTLTISSLQPEDFATYYCQQSYTTPPTFGQGTKVEIK
notes: also called 1F11/3F5/Y102L T110A IgG
signal of the Ub2 band at 1000 ng linear diUb (number under the arrow) [7]: 5.5

B5: 1F11/Y102L T110A (antibody, V domains shown)
VH: EVQLVESGGGLVQPGGSLRLSCAASGFTFSNTYISWVRQAPGKGLEWVASITPSSGSTDYADSVKGRFTISADTSKNTAYLQMNSLRAEDTAVYYCARTWLLRWVMDLWGQGTLVAVSS
VL: DIQMTQSPSSLSASVGDRVTITCRASQDVSTAVAWYQQKPGKAPKLLIYSAKFLYSGVPSRFSGSGSGTDFTLTISSLQPEDFATYYCQQSYTTPPTFGQGTKVEIK
notes: also called 1F11/Y102L T110A IgG
signal of the Ub2 band at 1000 ng linear diUb (number under the arrow) [8]: 8.4

B6: 1F11/3F5/Y102L IgG (antibody, V domains shown)
VH: EVQLVESGGGLVQPGGSLRLSCAASGFTFSNTYISWVRQAPGKGLEWVASITPSSGQTDYADSVKGRFTISADTSKNTAYLQMNSLRAEDTAVYYCARTWLLRWVMDLWGQGTLVTVSS
VL: DIQMTQSPSSLSASVGDRVTITCRASQDVSTAVAWYQQKPGKAPKLLIYSAKFLYSGVPSRFSGSGSGTDFTLTISSLQPEDFATYYCQQSYTTPPTFGQGTKVEIK
notes: also called triple mutant; hybrid anti-linear polyubiquitin antibody
signal of the Ub2 band at 1000 ng linear diUb (number under the arrow) [7]: 15.5

B7: 2H5/3F5 double mutant, Fab displayed on phage (Fab, name in Kabat numbering, V domains shown)
VH: EVQLVESGGGLVQPGGSLRLSCAASGFTFSNTYISWVRQAPGKGLEWVASITPSSGQTDYADSVKGRFTISADTSKNTAYLQMNSLRAEDTAVYYCARTWLLRWVMDYWGQGTLVTVSS
VL: DIQMTQSPSSLSASVGDRVTITCRASQDVSTAVAWYQQKPGKAPKLLIYSASFLYSGVPSRFSGSGSGTDFTLTISSLQPEDFATYYCQQSYTNPPTFGQGTKVEIK
binding result [9]: no binding (tested: phage OD268 1)
binding result [10]: no binding (tested: phage OD268 1)
binding result [11]: no binding (tested: phage OD268 1)
IC50 [12]: 8 nM

B8: 3F5/Y102L IgG (antibody, V domains shown)
VH: EVQLVESGGGLVQPGGSLRLSCAASGFTFSNTYISWVRQAPGKGLEWVASITPSSGQTDYADSVKGRFTISADTSKNTAYLQMNSLRAEDTAVYYCARTWLLRWVMDLWGQGTLVTVSS
VL: DIQMTQSPSSLSASVGDRVTITCRASQDVSTAVAWYQQKPGKAPKLLIYSASFLYSGVPSRFSGSGSGTDFTLTISSLQPEDFATYYCQQSYTTPPTFGQGTKVEIK
notes: Human kappa IgG1
signal of the Ub2 band at 1000 ng linear diUb (number under the arrow) [7]: 18

B9: 2C11/3F5 double mutant, Fab displayed on phage (Fab, name in Kabat numbering, V domains shown)
VH: EVQLVESGGGLVQPGGSLRLSCAASGFTFSNTYISWVRQAPGKGLEWVASITPSSGQTDYADSVKGRFTISADTSKNTAYLQMNSLRAEDTAVYYCARTWLLRWVMDYWGQGTLVTVSS
VL: DIQMTQSPSSLSASVGDRVTITCRASQDVSTAVAWYQQKPGKAPKLLIYSASFLYSGVPSRFSGSGSGTDFTLTISSLQPEDFATYYCQQSYTQPPTFGQGTKVEIK
binding result [9]: no binding (tested: phage OD268 1)
binding result [10]: no binding (tested: phage OD268 1)
binding result [11]: no binding (tested: phage OD268 1)
IC50 [12]: 10 nM

B10: 1F11/3F5 double mutant, Fab displayed on phage (Fab, V domains shown)
VH: EVQLVESGGGLVQPGGSLRLSCAASGFTFSNTYISWVRQAPGKGLEWVASITPSSGQTDYADSVKGRFTISADTSKNTAYLQMNSLRAEDTAVYYCARTWLLRWVMDYWGQGTLVTVSS
VL: DIQMTQSPSSLSASVGDRVTITCRASQDVSTAVAWYQQKPGKAPKLLIYSAKFLYSGVPSRFSGSGSGTDFTLTISSLQPEDFATYYCQQSYTTPPTFGQGTKVEIK
notes: S52K (L2) and S56Q (H2)
binding result [13]: no binding (tested: phage OD268 1)
binding result [14]: no binding (tested: phage OD268 1)
binding result [15]: no binding (tested: phage OD268 1)
IC50 [12]: 5 nM
